Data published in US11448657B2, “Methods and kits for assessing Heparanase procoagulant activity, compositions comprising Heparanase, and methods for the treatment of coagulation-related disorders” (RAMBAM MED-TECH, priority 2011, dated 2022).
“Also recorded” adds a separate entry of the source.

Key:
normal human plasma = assay: Factor Xa generation in pooled normal human plasma; type: biochemical; details: factor VIIa and factor X added, 15 min 37° C.
Experimental: Increasing doses of heparanase were added to pooled normal human plasma (25 μL plasma). After 15 min at 37° C., chromogenic substrate for the detection of factor Xa was added (1 mM). The mean value±SD of three independent experiments is shown. Note a 7- to 8-fold increase in coagulation activity in the presence of heparanase.
(§1) Next, the procoagulant effect of heparanase in human plasma was tested. Using an ELISA method [Shafat I. et al., Biochem Biophys Res. Commun. […] When heparanase, factor VIIa and factor X were incubated (15 min, 37° C.) with pooled normal human plasma from five healthy donors, followed by the addition of a chromogenic substrate for factor Xa, a 7- to 8-fold increase in factor Xa levels was obtained com-pared to levels in plasma incubated in the absence of heparanase (FIG. 2). In this condition the coagulation was mainly dependent on the concentration of endogenous TF, as described previously [Suefuji H. et al., Am Heart J. 1997, 134(2 Pt. 1):253-259; Kim H K et al., Cardiology. 2000, 93(1-2):31-36]. The effect of heparanase was also tested in whole blood using thromboelastography. Citrated blood samples from healthy donors to which factor VIIa (0.04 μM) and factor X (1.4 μM) were added were recalcified according to the manufacturer's recommendations (final concentration of CaCl2) 8 mM) and arranged in the disposable cups of the thromboelastogram. […]

prothrombin = biological target: T1, prothrombin (Homo sapiens, UniProt P00734); assay: Direct activation of prothrombin by heparanase; type: biochemical; details: heparanase with prothrombin, 15 min 37° C.
T1 construct: plasma-derived human prothrombin; purchased American Diagnostica (Stanford, Conn., USA); host or cells: purified from human plasma

whole blood = assay: Thromboelastography in citrated whole blood; parameters: species or system human
Experimental: Thromboelastogram studies. The assay includes addition of factor VIIa, X and calcium to blood drawn into citrate in the presence or absence of heparanase. Each time, a sample with addition of heparanase (Hepa) and a sample without (Con)—were analyzed in parallel. R—The period of latency from the time that the blood was placed in the analyzer until the initial fibrin formation: this represents the coagulation factor activation.
Angle—measures the rapidity of fibrin build-up and cross-linking: this represents the coagulation factor amplification. MA—A direct function of the maximum dynamic properties of fibrin and platelet bonding: signifies the ultimate strength of the clot. […] Representative results are shown.
The assay was performed according to the manufacturer's recommendations. Briefly, 3 mL of healthy donor's whole blood were collected in a bottle containing 3.2% (0.12M) sodium citrate and stored at room temperature. Recalcification and TEG® measurements at 37° C. were performed in disposable cups of the Thrombelastograph® coagulation analyzer (Haemoscope Corporation, Skokie, Ill., USA).
as §1, with “thromboelastography.” for “thromboelastography. Citrated blood samples from healthy donors to which factor VIIa (0.04 μM) and factor X (1.4 μM) were added were recalcified according to the manufacturer's recommendations (final concentration of CaCl2) 8 mM) and arranged in the disposable cups of the thromboelastogram.”

ICR mice = assay: Intra-peritoneal injection of heparanase to ICR mice, blood drawn after 4 hours (ELISA); type: in vivo; details: for IL-6 level: heparanase intra-peritoneal
Experimental: Heparanase or LPS were injected to ICR mice and blood was drawn after 4 hours. Intra-peritoneal injection of heparanase (0.5 μg/mg) compared to PBS injection increased TAT (p<0.05) (18A) and D-Dimer (p<0.05) (18B) levels to similar levels induced by LPS (5 μg/mg).
FIG. 19: IL-6 as a marker of sepsis severity Heparanase, LPS and LPS+heparanase were injected intra-peritoneal to ICR mice. Four hours later the blood was drawn and IL-6 level was measured by ELISA.
Methods: ICR mice, heparanase knock-out mice and heparanase over-expression mice were studied. Sepsis was induced by intra-peritoneal injection of lipopolysaccharides (LPS). Inhibitory peptides to TF/heparanase complex (number 11, 22, 5, 6, 7, 12, and 21 [SEQ IDs: 1-7]) were injected intra-peritoneal half an hour after heparanase or LPS. After 4 hours blood was obtained via sub-mandibular plexus puncture followed by mice sacrificing. Levels of thrombin-antithrombin (TAT), D-Dimer and IL-6 were tested using ELISA. Western blot to plasma factor VII and immunostaining of fibrinogen in lung, kidney and spleen were performed.

TF = biological target: T2, TF (Homo sapiens, UniProt P13726); assay: Far-western analysis of heparanase binding to TF and TFPI; details: heparanase 1 μg/mL, 2 h, 4° C.; TF 100 ng, TFPI 100 ng
T2 construct: purchased American Diagnostica (Stanford, Conn., USA)
T2 sequence (P13726 33-295): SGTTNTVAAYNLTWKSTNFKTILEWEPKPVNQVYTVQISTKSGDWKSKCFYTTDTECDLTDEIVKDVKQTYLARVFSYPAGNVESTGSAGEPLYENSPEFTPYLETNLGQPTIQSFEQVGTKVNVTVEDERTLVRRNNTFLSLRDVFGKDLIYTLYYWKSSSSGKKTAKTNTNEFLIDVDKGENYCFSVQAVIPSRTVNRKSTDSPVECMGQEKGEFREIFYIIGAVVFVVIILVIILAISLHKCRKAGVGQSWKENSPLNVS
Experimental: FIG. 7B. Far-western analysis. Recombinant TF (100 ng) and TFPI (100 ng) were resolved by SDS-PAGE under reducing conditions using a 10% gradient polyacrylamide gel. After electrophoresis, proteins were transferred to a polyvinylidene fluoride membrane. The membrane was incubated for 2 h with GS3 active heparanase protein (1 μg/mL, 4° C.). Next, the membrane was probed with anti-heparanase antibody followed by horseradish peroxidase-conjugated secondary antibody and chemiluminescence substrate, as described in the Design and Methods section.

[1] = heparanase 0.5 μg/mg intra-peritoneal, 4 hours, compared to PBS

B1: heparanase: single chain GS3 active heparanase, comprised of the 8 kDa and 50 kDa heparanase heterodimer (8+50), recombinant human (protein, listed as Homo sapiens)
chain 1: DPAQDVVDLDFFTQEPLHLVSPSFLSVTIDANLATDPRFLILLGSPKLRTLARGLSPAYLRFGGTKTDFLIFDPKKE
chain 2: DPGKKFKNSTYSRSSVDVLYTFANCSGLDLIFGLNALLRTADLQWNSSNAQLLLDYCSSKGYNISWELGNEPNSFLKKADIFINGSQLGEDFIQLHKLLRKSTFKNAKLYGPDVGQPRRKTAKMLKSFLKAGGEVIDSVTWHHYYLNGRTATREDFLNPDVLDIFISSVQKVFQVVESTRPGKKVWLGETSSAYGGGAPLLSDTFAAGFMWLDKLGLSARMGIEVVMRQVFFGAGNYHLVDENFDPLPDYWLSLLFKKLVGTKVLMASVQGSKRRKLRVYLHCTNTDNPRYKEGDLTLYAINLHNVTKYLRLPYPFSNKQVDKYLLRPLGPHGLLSKSVQLNGLTLKMVDDQTLPPLMEKPLRPGSSLGLPAFSYSFFVIRNAKVAACI
modifications: single-chain GS3 linker
B1 was tested, and the “increase in coagulation activity (factor Xa levels) in plasma” value (normal human plasma) was 7- to 8 fold, the “thrombin generation from prothrombin alone” value (prothrombin) was “no thrombin was generated” and the “time to clot formation (R) at the highest dose” value (whole blood; heparanase 4 μM) was “effect on time to clot formation was abolished; also recorded: no effect on R is detected”. For the same molecule, the “thrombus strength (MA)” value (whole blood; increasing doses of heparanase) was “increase in thrombus strength; also recorded: stronger”, the “time to clot formation (R)” value (whole blood; increasing doses of heparanase, factor VIIa 0.04 μM, factor X 1.4 μM, recalcified blood) was “significant reduction in time to clot formation; also recorded: significantly faster” and the signs of illness (ICR mice; heparanase 0.5 μg/mg intra-peritoneal) was “mice did not show signs of illness”. The D-dimer level (ICR mice; [1]) was “increased”, the TAT level (ICR mice; [1]) was “increased” and the IL-6 level (ICR mice; 4 hours) was “levels of IL-6 did not rise”. The IL-6 level (ICR mice; 4 hours, listed as Heparanase) was “did not increase IL-6 level” and the “binding to TF and TFPI on membrane” value (TF) was “A clear band was revealed in the TF-heparanase lane but not in the TFPI-heparanase lane”.
